Data: PMC10402027 (bioRxiv, 2023)

Target: T1, progesterone receptor, B isoform (PR-B) (UniProt P06401 1-933)
T1 sequence: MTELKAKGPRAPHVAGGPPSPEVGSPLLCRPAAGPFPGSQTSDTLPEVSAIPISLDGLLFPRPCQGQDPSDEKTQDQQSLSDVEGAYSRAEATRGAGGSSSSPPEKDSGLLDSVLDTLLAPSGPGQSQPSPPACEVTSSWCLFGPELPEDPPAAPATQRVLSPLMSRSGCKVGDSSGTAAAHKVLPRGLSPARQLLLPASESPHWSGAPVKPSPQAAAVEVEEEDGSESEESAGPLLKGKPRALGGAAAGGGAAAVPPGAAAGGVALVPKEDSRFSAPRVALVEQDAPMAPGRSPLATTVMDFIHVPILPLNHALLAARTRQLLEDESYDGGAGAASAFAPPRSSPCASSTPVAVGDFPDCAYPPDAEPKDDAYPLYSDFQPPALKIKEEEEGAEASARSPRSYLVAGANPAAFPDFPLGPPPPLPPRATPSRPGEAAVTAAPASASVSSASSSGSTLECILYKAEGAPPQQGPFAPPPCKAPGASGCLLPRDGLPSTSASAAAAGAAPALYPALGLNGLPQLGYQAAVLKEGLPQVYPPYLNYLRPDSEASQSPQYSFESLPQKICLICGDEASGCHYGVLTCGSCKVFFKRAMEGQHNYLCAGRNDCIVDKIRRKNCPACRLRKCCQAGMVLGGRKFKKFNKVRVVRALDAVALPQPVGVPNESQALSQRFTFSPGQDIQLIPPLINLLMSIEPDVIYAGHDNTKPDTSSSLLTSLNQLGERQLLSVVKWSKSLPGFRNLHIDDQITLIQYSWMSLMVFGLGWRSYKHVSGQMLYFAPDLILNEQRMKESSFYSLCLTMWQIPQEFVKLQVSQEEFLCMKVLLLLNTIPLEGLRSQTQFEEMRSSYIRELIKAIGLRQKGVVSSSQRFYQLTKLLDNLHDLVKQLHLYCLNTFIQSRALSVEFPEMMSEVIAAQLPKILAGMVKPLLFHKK
Assay: FRET or BRET

- fold of the progesterone-induced increase in NanoBRET proximity against ERα WT: ~2 fold
B1: estrogen receptor alpha Y537S (ERα Y537S) (receptor)
chain: MTMTLHTKASGMALLHQIQGNELEPLNRPQLKIPLERPLGEVYLDSSKPAVYNYPEGAAYEFNAAAAANAQVYGQTGLPYGPGSEAAAFGSNGLGGFPPLNSVSPSPLMLLHPPPQLSPFLQPHGQQVPYYLENEPSGYTVREAGPPAFYRPNSDNRRQGGRERLASTNDKGSMAMESAKETRYCAVCNDYASGYHYGVWSCEGCKAFFKRSIQGHNDYMCPATNQCTIDKNRRKSCQACRLRKCYEVGMMKGGIRKDRRGGRMLKHKRQRDDGEGRGEVGSAGDMRAANLWPSPLMIKRSKKNSLALSLTADQMVSALLDAEPPILYSEYDPTRPFSEASMMGLLTNLADRELVHMINWAKRVPGFVDLTLHDQVHLLECAWLEILMIGLVWRSMEHPGKLLFAPNLLLDRNQGKCVEGMVEIFDMLLATSSRFRMMNLQGEEFVCLKSIILLNSGVYTFLSSTLKSLEEKDHIHRVLDKITDTLIHLMAKAGLTLQQQHQRLAQLLLILSHIRHMSNKGMEHLYSMKCKNVVPLSDLLLEMLDAHRLHAPTSRGGASVEETDQSHLATAGSTSSHSLQKYYITGEAEGFPATV
